{
  "source": "patent US20200369777A1",
  "about": "(Bristol-Myers Squibb, published 2020)",
  "binders": {"B1": {"name": "OX40.21 (antibody, human IgG1, kappa, V domains shown)", "VH": "EVQLVQSGGGLVQPGGSLRLSCAGSGFTFSSYAMYWVRQAPGKGLEWVSAIDTDAGTFYADSVRGRFTISRDNAKNSLYLQMNSLRAEDTAVYFCARLGEGYFFDYWGQGTLVTVSS", "VL": "EIVLTQSPATLSLSPGERATLSCRASQSVSSYLAWYQQKPGQAPRLLIYDASNRATGIPARFSGSGSGTDFTLTISSLEPEDFAVYYCQQRSNWPPTFGGGTKVEIKR", "notes": "also called OX40.21 (human)"}},
  "key": {"cynomolgus OX40": {"target": "T1, cynomolgus OX40 (cynomolgus, UniProt P43489 29-277 (human entry))", "T1 chain": "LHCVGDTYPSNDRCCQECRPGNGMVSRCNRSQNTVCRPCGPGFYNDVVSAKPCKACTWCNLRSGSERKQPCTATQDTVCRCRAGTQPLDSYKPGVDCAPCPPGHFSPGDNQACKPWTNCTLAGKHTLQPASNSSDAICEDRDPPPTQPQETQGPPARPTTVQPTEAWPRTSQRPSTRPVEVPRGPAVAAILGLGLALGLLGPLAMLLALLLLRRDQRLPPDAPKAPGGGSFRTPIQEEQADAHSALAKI", "test": "flow cytometry, binding to activated cynomolgus T cells"}, "human OX40 [1]": {"target": "T2, human OX40 (human, UniProt P43489 29-277)", "T2 construct": "also called TNFRSF4; CD134", "T2 sequence": "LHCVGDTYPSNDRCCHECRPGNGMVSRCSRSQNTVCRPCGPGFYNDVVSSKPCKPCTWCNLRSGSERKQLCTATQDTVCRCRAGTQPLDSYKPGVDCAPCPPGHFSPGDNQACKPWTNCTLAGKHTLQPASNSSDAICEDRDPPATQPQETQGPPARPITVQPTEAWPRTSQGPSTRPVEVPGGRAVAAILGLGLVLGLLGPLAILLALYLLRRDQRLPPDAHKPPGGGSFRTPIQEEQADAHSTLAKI", "test": "flow cytometry, binding to activated human T cells"}, "human OX40 [2]": {"target": "T2, human OX40", "test": "Emax PK-PD model: trough serum concentration (Cmin1) against blood receptor occupancy on CD4+ T cells at C2D1, 16 cancer patients, flow cytometry; in vivo blood receptor occupancy vs trough serum concentration (Cmin1), Emax PK-PD model; not an in vitro titration", "from_the_text": "(§1) This Example describes a PK-PD model for predicting receptor occupancy in human patients. The drug concentration-time profile was described by a linear two-compartment PK model using population PK analysis. […] The individual drug exposure (Cmin1: trough concentration after first dose) in the alternative dose schedule was predicted based on the PPK model, which was used in subsequent PK-PD model development.\n(§2) wherein drug concentration is Cmin1, the trough concentration after first dose, ROₘₐₓ is the maximum percentage of blood RO and EC₅₀ is the drug concentration corresponding to 50% of ROₘₐₓ. From this analysis, the drug EC₅₀ was estimated to be 0.094 μg/mL (FIG. 8B). The trial […] was conducted to predict blood RO at alternative dosing schedules by using the established PK-PD relationship (Emax model), as well as taking into account inter-subject variability of PK and PD (FIG. 9)."}, "human OX40 [3]": {"target": "T2, human OX40", "test": "Flow cytometry receptor occupancy on human CD4+ T cells cultured with CHO-OKT3-CD32A cells"}, "human OX40 [4]": {"target": "T2, human OX40", "test": "cell-based or functional assay"}, "human OX40 [5]": {"target": "T2, human OX40", "test": "Emax model (RO = Emax x Cmin1 / (EC50 + Cmin1)) of the trough concentration after the first dose against peripheral blood RO on CD4+ T cells at C2D1 in patients. The text prints the value rounded, 0.094 ug/mL. No Emax value is printed; the median curve runs from about 92 % at 20 mg to about 99 % at 320 mg", "from_the_text": "as §1, §2"}, "mouse OX40": {"target": "T3, mouse OX40 (mouse, UniProt P47741 20-272)", "T3 construct": "whole, on cells; also called murine OX40", "T3 sequence (looked up)": "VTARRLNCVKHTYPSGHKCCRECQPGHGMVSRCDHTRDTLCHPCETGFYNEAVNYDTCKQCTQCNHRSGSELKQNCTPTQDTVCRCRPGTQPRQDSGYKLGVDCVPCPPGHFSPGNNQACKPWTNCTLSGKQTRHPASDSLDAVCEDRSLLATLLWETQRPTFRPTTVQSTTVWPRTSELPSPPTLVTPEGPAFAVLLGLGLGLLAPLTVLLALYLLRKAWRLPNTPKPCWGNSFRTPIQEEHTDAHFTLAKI", "test": "flow cytometry, binding to activated mouse T cells"}, "human OX40 [6]": {"target": "T2, human OX40", "test": "Flow cytometry receptor occupancy on human CD4+ T cells cultured with CHO-OKT3-CD32A cells", "remark": "listed apart in the source"}, "human OX40 [7]": {"target": "T2, human OX40", "test": "Flow cytometry on human CD4+ T cells cultured with CHO-OKT3-CD32A cells; bound OX40.21 detected with APC anti-human Fc. Total surface OX40 changes along the same titration", "procedure": "Briefly, total T cells were purified from human whole blood using Ficoll gradient centrifugation. CD4+ T cells were isolated from PBMCs using the Miltenyi CD4+ isolation kit. Isolated T cells were cultured in the presence of irradiated CHO-OKT3-CD32A (artificial antigen presenting cells) and in the presence of serial dilutions of OX40.21 or isotype control. Receptor occupancy was determined as the ratio of bound OX40 antibody to total surface OX40 using flow cytometry. Bound antibody was assessed by adding fluorescent conjugated anti-human Fc after washing the T cells. Total OX40 was determined by adding a saturating amount of OX40 antibody to the T cells. Following incubation, cells were washed and stained by adding fluorescent conjugated anti-human FC."}},
  "data": [
    {"binder": "B1", "values": [
      {"measurement": "EC50", "setting": "cynomolgus OX40", "result": 0.068, "unit": "nM"},
      {"measurement": "EC50", "setting": "human OX40 [1]", "result": 0.072, "unit": "nM"},
      {"measurement": "EC50", "setting": "human OX40 [2]", "result": 0.094, "unit": "µg/mL"},
      {"measurement": "EC50 (read off the curve)", "setting": "human OX40 [3]", "result": "~0.3", "unit": "nM"},
      {"measurement": "EC50 of internalization (mean circle spot total intensity) in CD3/CD28-activated Tregs. The table prints no unit; the axis is 'Log nM Ab'", "setting": "human OX40 [4]", "result": 0.0779, "unit": "nM"},
      {"measurement": "EC50", "setting": "human OX40 [5]", "result": 0.0937, "unit": "µg/mL"},
      {"measurement": "binding result", "setting": "mouse OX40", "result": "no binding"},
      {"measurement": "EC50 (read off the curve)", "setting": "human OX40 [6]", "result": "~0.3", "unit": "nM"},
      {"measurement": "EC50 (read off the curve)", "setting": "human OX40 [7]", "result": "~0.1", "unit": "nM"}
    ]}
  ]
}
